Data reported in the DeepSol protein solubility set.

Assay: soluble on expression in E. coli; label from the status in PepcDB or PDB records

Row | Sequence | soluble on expression in E. coli
1 | MSLQPPFSILFVDDDEMSRNHFARAMSADYKVYVAQSADEAITVLGKHASEIAVLVTDFRMPGRDGDELLREVAHEYPQIVRILVTAYADKDMLLQTVNTGDVFRIIEKPLRTDMVREVLHLATARYTERETRQQRLLAMDETLAFLAHELNTPLATISLFARSVENDVAEQYDPERQREIGLAAKSMLNNAQYCLTLISSFWATVHKSGGQKSASGGGTRAVRATRLIATLLDTYPFVASQRDWVKVDVEGDFVVHAMPNCVALVLSSLLSNALRALDGGSAPVLRLEVVAFPEPEIRIRDNGPGIAPEVKARLLQDPVTTYAGAGGHGMGMIFCNRIMQSFGGCLRIESTVGAGTTVTMGFPGFNSRMHSADEGHHHHHH | soluble
2 | MSLQQGINKPIFQQAKLFRYQLPFKIPIVFKGIKLTAREGVILQVQNDKGEFNFAEIAPLPGFSKETLQQATAQIIALLNTPPLNSQSDILLYPSVAFALDCILHNIPISELFKTAESIPLLQGDNHSVLKQYLQMNKPNSVKLKIGRQSVAKDITLFSALSALNNNLLIRCDANQSWTFAQADLFFANINTQLIDYIEEPTASLSDNINLAERYEVQLALDETLQQKQFQYQHHRCFKALILKPTLIGSFERLNYFIKTAKKFHLSVSISSSFESPLGLSQLAFMASQWSKEVDISCGLDTLKFFESAILNKNSDKKLDNKTPINQQVKHLECLWTSNEGHHHHHH | soluble
3 | MSLQQYEILLDSGTNELEIVKFGVGENAFGINVMKVREIIQPVEVTSVPHSHQHVEGMIKLRGEILPVISLFSFFGVEPEGSKDEKYIVTEFNKRKIVFHVGSVSQIHRVSWEAIEKPTSLNQGMERHLTGIIKLEDLMIFLPDYEKIIYDIESDSGVDTYNMHTEGFDERRTDKKLIIVEDSPLLMRLLQDELKEAGYNNIASFENGKEAYEYIMNLAENETDLSKQIDMIITDIEMPKMDGHRLTKLLKENPKSSDVPVMIFSSLITDDLRHRGEVVGADEQISKPEISDLIKKVDTYVIEGHHHHHH | soluble
4 | MSLQSADESTFDRIRRTKKLRIGAVAGGAPYYNKDLATGQWKGFYIDISKALADELECQLEITETTWGNSVLDLQANKIDIFFGLNPTPKRALVVDFSVPVFSNAFTMLTRKDFAPKTWAELNDPNVKIAVDVGSSHDQVVSRLCPKAQIVRLKTADEATMALVSGRVDAQCIILMLALTVRKKNPNVGQLLVPTPVFSTTSNAGFRRENDKTWRDYVNTWIEYNKGLGFIRSAIVTNMELVGVTEADMPAGIQEGHHHHHH | soluble
5 | MSLQSSEAIDTEPKTISPVPEGRPVLVLDLDETCIYSTPAKPEKQQNFPIRIKRRNVFIQVRPGMQECIRRLSEKYEIFFYTASTKIYANKVIDAIAPFVDNEHRFFVSRDQLKDLTLINRPLGKVLLLDNSACSAQKNNLLLIKTWIGDPNDNAFTNEVMPLLDNLVKESDIPSACRNLVSSRRYPSLYVIRSEGHHHHHH | soluble
6 | MSLQTKHIDDLKEALMCQRNNDDKLEDLVGKIVNDYHTYAGKRSELSYRCCAHYFAPSWNTPIENSMLWMGGCRPSSFIRLIYALCGSQAETQLSQYLLKIDDDFDINHGGFMSDLTATQLGKLNDLHLEVIKKEDKITKTSANFQDDVADLPIADVVHADVAVEDALDKHEEGMAVLLAEADKLRFETLRKIVDVVTPLQAVEFLLAGKRLQLSLHDRGRVRADVCGGVGGAAV | soluble
7 | MSLQTLSIQHGTLVTMDQYRRVLGDSWVHVQDGRIVALGVHAESVPPPADRVIDARGKVVLPGFINAHTHVNQILLRGGPSHGRQLYDWLFNVLYPGQKAMRPEDVAVAVRLYCAEAVRSGITTINDNADSAIYPGNIEAAMAVYGEVGVRVVYARMFFDRMDGRIQGYVDALKARSPQVELCSIMEETAVAKDRITALSDQYHGTAGGRISVWPAPAITPAVTVEGMRWAQAFARDRAVMWTLHMAESDHDERLHWMSPAEYMECYGLLDERLQVAHCVYFDRKDVRLLHRHNVKVASQVVSNAYLGSGVAPVPEMVERGMAVGIGTDDGNCNDSVNMIGDMKFMAHIHRAVHRDADVLTPEKILEMATIDGARSLGMDHEIGSIETGKRADLILLDLRHPQTTPHHHLAATIVFQAYGNEVDTVLIDGNVVMENRRLSFLPPERELAFLEEAQSRATAILQRANMVANPAWRSLEGHHHHHH | soluble
8 | MSLQWECWPSLPCWRCFAASGRITLSIKRFTQNSRRHDMKITKINAIPLSYRLPEGKTVTMGVGSTIKRDAIIIRVETSEGITGYGEAHPGRSPGAITSLIHNTIAPMLIGMKATDCVGAWQRVHRMQLSSHGLGAGAALAISGIDMALWDIRGKAANMPLYELLGGSKRRIPAYAGGIALGYQPKESLAEEAQEYIARGYKALKLRIGDAARVDIERVRHVRKVLGDEVDILTDANTAYTMADARRVLPVLAEIQAGWLEEPFACNDFASYREVAKITPLVPIAAGENHYTRFEFGQMLDAGAVQVWQPDLSKCGGITEGIRIAAMASAYRIPINAHSSATGLNHAATIHFLAATENAGYFEACVSKFNPFRDMFGTSFEIGADGCVEPPDAPGLGIEVDESIFEKYPAVDGPGYVVKFEGHHHHHH | soluble
9 | MSLRATWGDVRQGLWMSLTRAGLLHLNADPDPKNWRPHILVLSGAPRRRWPVIELASALTHNQALMTVGTVLRPSEASDFEAQREAEATLREYLGSRGVQSLVRTTTAEDPFAGGERLIEDYGLGVLKPNTIMLGHTEDPTHHEQFCTLIKHLYAARRNVAVLRGGNQGFGNRERIDVWWSGLKGNGGLMKILAYLLQTNLEWQNAQVRVNVVADDDEEAEEQRQTVGPILDQLRTGAALNVIEADGRIFDEIVHDASADADIVFLGMATPDEEGDYVTYYTRLHERTAGLPPTVFVLAAEEISFRDVLALEHHHHHH | not soluble
10 | MSLRETLKTIAETLNVTHTTVSNVFNRPEKVSPELREKILAYAESINYHGPAGAGRFLRTGKCGTLGVIFNDNLSYVFSDRHDIALMRGIAEECEKNGINIALMPLKTNNALKKRMMGALVDGYILNATYNNDEVVQAALTSGLPVITTDIKLQNFTCVSIDDGAAMQAICHHLLAAGHKKFGIVSFPVKRLPGELTSLAEFSTDYDNGVAFGRISACITALSDAGIDLHTSYVAEQPHSETGGEKAAKALLAKEPGISAIICLSDRFAFGVYQFCQDHNIPVPGQIAITGFDDIDIQDPPVGLTTIRQPTVLKGREAARALISGQLDNDISLDFELVVRDSAEGHHHHHH | soluble
11 | MSLRFVFDIDGTLCFDGRLIDQTIIDTLLQLQHDGHELIFASARPIRDLLPVLPSVFHQHTLIGANGAMISQQSKISVIKPIHTDTYHHILKIIQKYELDYIIDDDWNYAAQLDAENAIFERLDPHKLASCIDVANIDTPIKIILLNIDPAQITTILDELNKYHQELEMIHHSNEYNIDITAQNINKYTALQYIFDADVKYIAFGNDHNDIFMLQHASSGYIIGPSEAYTHAILKLDKIKHINNNTQAICKVLKSYKEGHHHHHH | soluble
12 | MSLRGGAQALECYSCVQKADDGCSPNKMKTVKCAPGVDVCTEAVGAVETIHGQFSMAVRGCGSGLPGKNDRGLDLHGLLAFIQLQQCAQDRCNAKLNLTSRALDPAGNESAYPPNGVECYSCVGLSREACQGTSPPVVSCYNASDHVYKGCFDGNVTLTAANVTVSLPVRGCVQDEFCTRDGVTGPGFTMSGSCCQGSRCNSDLRNKTYFSPREGHHHHHH | not soluble
13 | MSLRGGEDSPVDGARQAAANVFGPIENGVSSAVDPVGNAVSAVRDSGDRHDRLARLETENAALKAKSGSDERGRSRLKQFDKMLGLAGAGQYGIKGAQVIAIGAAQGFSWTITIDAGANDGVKRDMTVLNGDGLVGRVTTVGPNTATVLLANDPDFTVGTRMESGDELGFASGQGSRPLRVELLNGKADVKKGDRLVTFGSQADKPFVPGVPVGTITRVDPNGGDLTRILDVTPFVSFTKLDIVGVVVQAPSKDPRDTVLPEKKQPKPTPTVTVTVTPGADPEGQTRNDEAGQDEAAGQNDATGQNDQTEQQNEQPEPEGHHHHHH | soluble
14 | MSLRIIKAGLIGCGNISSIYFENVHRFKHLTIVACADLHLERARAQAEKYRIPKACTVAELLEDPEIELVINLTIPQVHAKVCIQALEAGKHVYTEKPLTITLEEGQKLLEKAKETGLLVGCAPDTFLGAGIQTSIQVIERGEIGTPVGASAFMIGRGHEHWHPDPAFYYDVGGGPMYDMGPYYLTALTALLGPMARVSGSARITYPERTILSEPKKGTKIKVSTPTHISGVIDFANGAIASITTSFDAFGGSVLPPIEVYGSEGTLLVPDPNTFDGPVQLRKRDEREFVEVPLTYHYTENNRGIGVADMAMSLLTGSDYRASGTMGFHVLEAMHGFHMSSTSGHHYQMKSTCRKPEPLPVDFRFSYVETEGHHHHHH | soluble
15 | MSLRKDLSEKVLIADGAMGTLLYSYGVDRSFEELNLSHPEDIVAIHKAYIGAGADIIQTNTYGANYIKLARYGLEDEVKRINQAAIRLAKEAARGTGTYIFGTIGGINGAVDARLPAAPLEEIKRSFREQLYCFLLDGVDAILLETYYDLDELKTVLKILRETTDLPVVANVSMHEPGILQNGKKLPDALEELIALGADVVGINCRLGPYHMARALETVPLYDNAYLAVYPNASLPEMQEGKVIYQSDTDYFEHYGEVFRQEGARIIGGCCGTTPDHIRALRKGLETTKPILEKEVRPILELVPEEVEDVDSGERLLDKVKERLTILVELDPPRTFDTTKFFEGAQALDEAGVDAITISDNSLATPRISNMALASILKHEYGIKPLIHLTTRDHNLVGMHSHVMGFHKLGLHDVLAITGDPTKVGDFPGASSVFDLRSVELVQLIKKFNDGISYTGKSLKEKARFHVGAAFNPNVLNLEKAVRLIERKVEYGADYIITQPIYDVNKAILLKEALQKANIDVPLFIGVMPLLSSRNAEFLHNEVPGIRLTDDVRERMREAEEHGHANEEGMAIARELVDAICEHFQGIYIITPFLRYDLSIELAKYAQNKQQVQIGSKEGHHHHHH | soluble
16 | MSLRKTQTYKSLPYNPALRDRAKALRKAGILHEALLWFELKSNKLNGLDFDRQKIIGNYIVDFYCAERSVVIEVDGSSHDSKQIEDRERDAYLNGLGLTVIRVLAKDVLRNLEGVVEFLKDHPALTGTPPEEGNKTALTGTPPEEGNKTALTGTPPEEGNKTALTGTPPEEGNKTALTGTPPEEGNKTTLTEAREEGHHHHHH | soluble
17 | MSLRLKTILLTTMATGSFLCEPVAAMCIEPPATPDMGWFLKKKKKSNPQDSIKVKNEYEKLTGSDSVVRRGMFNVYQKKNDYYFEIPSTLLERDMLVVNKLQRVPAELNEAGVNRGTNYENQMIRFELDKSANKLLIRQSRPLPISPSEDAISQSVKDNYISPLIAGFKVEAYNNDSTSILIKVNDIYDGTETSINNVFTNINLGTSAIKNLSRILSIKSFDNNVVATSELTTRVTEGTTTIYVTVEVSSSILLLPEVPMTGRLDNPRVGYFTNPLTNFSDGQQRVNKKQFITRWRLEPRPEDRAAYLRGELVEPRKPIVFYIENSTPYRWRKYIKQGIEDWQVAFERAGFKNAIIAKDITEDMEVDMDDVNYSVLTYAASTKANAMGPSILDPRSGEILEADIMWWHNVLSMLQEWITVQTGVVRPEARGVALPDSLMGDAMRFVACHEVGHSLGLRHNMMGSWAFPTDSLRSKTFTDRMNSTSSSIMDYARFNYVAQPGDGIKALSPHIGPYDMFAIEYGYRWYGKQTPEEEKELLQDFLAKHTDRLYKYSEAQDEGHHHHHH | soluble
18 | MSLRPRQLLLATDLGARCDRALDRAIQLSRAWHAALTVVHAVEQVELIDDEPSWRQPPDAALAIQAELEDELGEAGLSSIDARVLKGKPSEVVLKVAEEVEAELILTGVKRDGALEKALLGDTVTELARQSRVPVLVVKKRLRKPYGRIVVATDLSELSRAALARAVDLFGPDNLVVFHASFAHFASRMDDRVAYESELRSDAIQNCRDFIRDVAGEEAAATMEVMVEYGEPDLLLEKYVQDKQVDLVVVSTRGRSGLLGVLLGSVAMRILDSVACDVLIVRSEGHHHHHH | soluble
